We go through 30 molecules from patent US10538583 (dated 2020).

Positions count from the first letter of the chain named.

Assay [1] deals with human ApoC3 (human). Briefly: SPR pH 5.5.
For assay [2], the target named is human ApoC3 (human). Briefly: SPR pH 7.4.
Assay [3] addresses human ApoC3 (human). Briefly: SPR pH 7.4. The source holds these as a separate data set.
The target of assay [4] is human ApoC3 (human). Briefly: SPR pH 5.5. The source holds these as a separate data set.
Assay [5] concerns the target human ApoC3 (human). Briefly: SPR pH 5.5. This is another data set of the same source.
Assay [6] has as its target human ApoC3 (human). Briefly: SPR pH 7.4. This is another data set of the same source.
For assay [7], the target named is human ApoC3 (human). Briefly: SPR pH 7.4, antibody immobilized.
The target in assay [8] is human ApoC3 (human). Briefly: SPR pH 5.5, antibody immobilized.

Chain of human ApoC3 (human) (chain, as listed by the source): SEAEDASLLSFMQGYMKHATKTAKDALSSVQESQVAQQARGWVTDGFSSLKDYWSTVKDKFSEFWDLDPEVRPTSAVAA

B1: 5E5VH5VH12_VLWT IgG1 (antibody, V domains shown)
VH: QLQLVESGGGLVQPGGSLRLSCAASGFTFGTYSMRWVRQVPRKALEWVSSIHTDGGGTAYRDSVKGRFTISRDNAKNTLYLQMNNLKPEDTAIYYCVIHGYSDWGQGTQVTVSS
VL: ATMLTQSPGSLSVVPGESASISCKTSQGLVHSDGKTYFYWFLQKPGQSPQQLIYQVSNRASGVPDRFTGSGSGTDFTLKISGVKAEDAGVYYCAQGTYYPHTFGSGTRLEIK
Consider B1, for which the Kd was 20.2 nM in the assay with human ApoC3 [1] and 4.96 nM in the assay with human ApoC3 [2].

B2: 5E5VH5_VLWT scFv-Fc (antibody, V domains shown)
VH: B1 VH with H99A
VL: B1 VL
As for B2, the Kd with human ApoC3 [3] stood at 0.59 nM; with human ApoC3 [4], 10.9 nM.

B3: 5E5VH12_VLWT IgG1 (antibody, V domains shown)
VH: B1 VH with H52S
VL: B1 VL
As for B3, the figures for the Kd in the assay with human ApoC3 [1] and in the assay with human ApoC3 [2] were 1.02 nM and 0.0351 nM, respectively.

B4: 5E5VH5_VLWT IgG1 (antibody, V domains shown)
VH: B1 VH with H99A
VL: B1 VL
For B4, the Kd stood at 1.31 nM with human ApoC3 [1] and 0.211 nM with human ApoC3 [2].

B5: 5E5WT (5E5) IgG1 (antibody, V domains shown)
VH: B1 VH with H52S, H99A
VL: B1 VL
For B5, the Kd came out at 0.0499 nM with human ApoC3 [5], 0.0512 nM in the assay with human ApoC3 [6], 0.0499 nM with human ApoC3 [1] and 0.0512 nM in the assay with human ApoC3 [2].

B6: 5E5WT scFv-Fc (antibody, V domains shown)
VH: B1 VH with H52S, H99A
VL: B1 VL
In the case of B6, the Kd worked out at 0.02 nM with human ApoC3 [3] and 0.06 nM in the assay with human ApoC3 [4].

B7: mAb2 (antibody, V domains shown)
VH: QLVESGGGLVQPGGSLRLSCAASGFTFGTYSMRWVRQVPGKGLEWVSSIHTEGGGTAYRDSVKGRFTISRDNAKNTLYLQMNSLRAEDTAIYYCVIAGYSDWGQGTLVTVSS
VL: DIVMTQSPLSLPVTPGESASISCKTSQGLVHSDGKTYFYWFLQKPGQSPQQLIYQVSNRASGVPDRFSGSGSGTDFTLKISRVKAEDAGVYYCAHGTYYPHTFGQGTRLEIK
As for B7, the Kd with human ApoC3 [7] came to 103 nM; with human ApoC3 [5], 0.283 nM; with human ApoC3 [8] it was 290 nM; with human ApoC3 [6], 0.0552 nM.

B8: mAb6 (antibody, V domains shown)
VH: B7 VH with V38A, I91V
VL: B7 VL
Turning to B8, the Kd with human ApoC3 [7] came out at 165 nM; in the assay with human ApoC3 [5] it was 0.347 nM; in the assay with human ApoC3 [8], 861 nM; with human ApoC3 [6], 0.0599 nM.

B9: mAb16 (antibody, V domains shown)
VH: B7 VH with V38A, G53A, S83N, R85K, L107Q
VL: B7 VL with D33G, S68T, K84E, Q105S
Turning to B9, the dissociation constant (Kd) worked out at 596 nM with human ApoC3 [7], 7.44 nM with human ApoC3 [5] and 0.687 nM with human ApoC3 [6].

B10: mAb17 (antibody, V domains shown)
VH: B7 VH with G28S, V38A, G53A, S83N, I91V
VL: B7 VL with S18P, D33G, S68T, K84E, H95Q
In the case of B10, the Kd with human ApoC3 [7] was 62.4 nM; in the assay with human ApoC3 [5] it was 0.342 nM; in the assay with human ApoC3 [8], 257 nM; in the assay with human ApoC3 [6], 0.0464 nM.

B11: 5E5VH12_VL8 IgG1 (antibody, V domains shown)
VH: B1 VH with H52S
VL: B1 VL with Q95H
Turning to B11, the figures for the dissociation constant (Kd) in the assay with human ApoC3 [1] and with human ApoC3 [2] were 8.79 nM and 0.609 nM, respectively.

B12: 5E5VH5_VL8 IgG1 (antibody, V domains shown)
VH: B1 VH with H99A
VL: B1 VL with Q95H
In the case of B12, the Kd with human ApoC3 [7] worked out at 298 nM; with human ApoC3 [5], 11.4 nM; with human ApoC3 [6] it was 0.975 nM; with human ApoC3 [1], 11.4 nM; with human ApoC3 [2], 0.975 nM.

B13: mAb11 (antibody, V domains shown)
VH: B7 VH with G28S, S83N, I91V
VL: B7 VL with P12S, S18P, K84E, A88V
As to B13, the Kd with human ApoC3 [7] is 129 nM; with human ApoC3 [5], 0.331 nM; in the assay with human ApoC3 [8] it was 503 nM; with human ApoC3 [6], 0.173 nM.

B14: mAb4 (antibody, V domains shown)
VH: B7 VH with V38A
VL: B7 VL
As to B14, the Kd with human ApoC3 [7] came out at 124 nM; in the assay with human ApoC3 [5], 0.374 nM; with human ApoC3 [8], 432 nM; with human ApoC3 [6], 0.00464 nM.

B15: mAb13 (antibody, V domains shown)
VH: B7 VH with V3L, G28S, A73S, I91V
VL: B7 VL with S18P, F41Y, Q51L, K84E, A88V
Regarding B15, the equilibrium dissociation constant (Kd) with human ApoC3 [7] worked out at 1000 nM; with human ApoC3 [5], 5.56 nM; with human ApoC3 [6], 4.19 nM.

B16: 5E5VHWT_VL8 IgG1 (antibody, V domains shown)
VH: B1 VH with H52S, H99A
VL: B1 VL with Q95H
As to B16, the Kd with human ApoC3 [1] came to 0.0556 nM; in the assay with human ApoC3 [2] it was 0.0363 nM.

B17: mAb12 (antibody, V domains shown)
VH: B7 VH with G28S, E52D, G53A, A86P
VL: B7 VL with P12S, S18P, S68T, A88V
B17: the Kd with human ApoC3 [7] stood at 321 nM; with human ApoC3 [5] it was 0.139 nM; in the assay with human ApoC3 [8], 343 nM; with human ApoC3 [6] it was 0.0655 nM.

B18: mAb10 (antibody, V domains shown)
VH: B7 VH with G28S, S83N, I91V
VL: B7 VL with P12S, T14V, S18P, K84E, A88V
B18: the Kd with human ApoC3 [7] turned out to be 189 nM; in the assay with human ApoC3 [5], 0.27 nM; with human ApoC3 [8] it was 334 nM; with human ApoC3 [6], 0.0956 nM.

B19: mAb8 (antibody, V domains shown)
VH: B7 VH with G28S, V38A, E52D, G53A, S83N, I91V
VL: B7 VL with P12S, T14V, S18P, K84E, A88V
In the case of B19, the Kd in the assay with human ApoC3 [7] was found to be 241 nM; with human ApoC3 [5] it was 0.749 nM; in the assay with human ApoC3 [8], 242 nM; with human ApoC3 [6], 0.102 nM.

B20: mAb20 (antibody, V domains shown)
VH: B7 VH with G28S, V38A, E52D, G53A, S83N, A86P, I91V
VL: B7 VL with L9G, P12S, S18P, D33G, S68T, R82G, K84E
As for B20, the Kd with human ApoC3 [7] was found to be 1340 nM; with human ApoC3 [5], 9.44 nM; with human ApoC3 [6], 0.586 nM.

B21: mAb15 (antibody, V domains shown)
VH: B7 VH with V38A, G53A, S83N, R85K, L107Q
VL: B7 VL with D33G, S68T, K84E, H95Q, Q105S
Turning to B21, the Kd with human ApoC3 [7] was found to be 34.7 nM; with human ApoC3 [5], 0.353 nM; with human ApoC3 [8], 86.2 nM; with human ApoC3 [6] it was 0.00538 nM.

B22: mAb19 (antibody, V domains shown)
VH: B7 VH with G28S, V38A, E52D, G53A, S83N, A86P, I91V
VL: B7 VL with L9G, P12S, S18P, D33G, S68T, R82G, K84E, H95Q
As to B22, the Kd with human ApoC3 [7] was 35.5 nM; with human ApoC3 [5] it was 0.417 nM; with human ApoC3 [8] it was 157 nM; in the assay with human ApoC3 [6], 0.0453 nM.

B23: mAb3 (antibody, V domains shown)
VH: B7 VH with V38A
VL: B7 VL with S68T
On to B23, for which the Kd with human ApoC3 [7] was 174 nM; with human ApoC3 [5] it was 0.351 nM; in the assay with human ApoC3 [8], 323 nM; with human ApoC3 [6] it was 0.11 nM.

B24: mAb1 (antibody, V domains shown)
VH: B7 VH
VL: B7 VL with S68T
In the case of B24, the Kd with human ApoC3 [7] was 73.9 nM; with human ApoC3 [5], 0.237 nM; in the assay with human ApoC3 [8], 253 nM; with human ApoC3 [6], 0.0454 nM.

B25: mAb9 (antibody, V domains shown)
VH: B7 VH with G28S, V38A, E52D, G53A, S83N, I91V
VL: B7 VL with P12S, S18P, K84E, A88V
Consider B25, for which the Kd in the assay with human ApoC3 [7] was determined as 232 nM; with human ApoC3 [5], 0.759 nM; in the assay with human ApoC3 [8], 541 nM; in the assay with human ApoC3 [6], 0.149 nM.

B26: mAb18 (antibody, V domains shown)
VH: B7 VH with G28S, V38A, G53A, S83N, I91V
VL: B7 VL with S18P, D33G, S68T, K84E
Take B26: the dissociation constant Kd with human ApoC3 [7] was determined as 509 nM; with human ApoC3 [5] it was 8.62 nM; in the assay with human ApoC3 [6], 1.33 nM.

B27: mAb5 (antibody, V domains shown)
VH: B7 VH with V38A, I91V
VL: B7 VL with S68T
Consider B27, for which the Kd worked out at 181 nM in the assay with human ApoC3 [7], 0.345 nM with human ApoC3 [5], 408 nM in the assay with human ApoC3 [8] and 0.148 nM with human ApoC3 [6].

B28: mAb14 (antibody, V domains shown)
VH: B7 VH with V3L, A73S, I91V
VL: B7 VL with S18P, F41Y, Q51L, K84E, A88V
As to B28, the Kd was 1760 nM with human ApoC3 [7], 21.3 nM with human ApoC3 [5] and 2.96 nM with human ApoC3 [6].

B29: mAb7 (antibody, V domains shown)
VH: B7 VH with G28S, V38A, E52G, S83N
VL: B7 VL
On to B29, for which the Kd in the assay with human ApoC3 [7] is 247 nM; with human ApoC3 [5], 4.89 nM; with human ApoC3 [8], 583 nM; with human ApoC3 [6], 0.0928 nM.

B30: 5E5VHWT_VL8 scFv-Fc (antibody, V domains shown)
VH: B1 VH with H52S, H99A
VL: B1 VL with Q95H
On to B30, for which the equilibrium dissociation constant (Kd) in the assay with human ApoC3 [3] was 0.58 nM; with human ApoC3 [4], 4.29 nM.
